Measured values published in the supplement of paper PMC10724198.
± gives the standard deviation of the averaged measurements.

System: Saccharomyces cerevisiae
Assay: protein stability index of tFT-peptide fusion (C-terminal peptide) (PSI (0-1 scale)); higher = more stable (slower turnover)
Details: genetic background: wild type; temperature: 30 C
Method: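 Multiplexed protein stability (MPS) profiling in S. cerevisiae. Random 12-aa peptides (tFT-X12 library) are fused to the C-terminus of a sfGFP-mCherry tandem fluorescent timer, after mCherry and a GGGS linker. Cells are FACS-sorted into 8 mCherry/sfGFP bins and deep-sequenced. The protein stability index (PSI) is the read-weighted bin average, scaled from 0 (unstable) to 1 (stable). Only peptides with >10 reads are reported; cells were grown at 30 °C in SC-His with glucose.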
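Note: PSI is a weighted mean of sequencing reads over stability bins, variants kept only with over 10 reads, mCherry proximal and sfGFP distal, peptide attached via GGGS linker.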

Sequence | protein stability index
AVLPSLWLWTKK | 0.682 ± 0.095
AVPITRLPSPSP | 0.6668 ± 0.0047
AVPSAPPNPDAS | 0.704 ± 0.046
AVRDGSGCQCVG | 0.6797 ± 0.0012
AVRGCGVGSGWR | 0.713 ± 0.02
AVRYFKLCRSCL | 0.65 ± 0.012
AVTLAPPRLRPL | 0.761 ± 0.029
AVTSLGGGIILN | 0.659 ± 0.045
AVWNWEEVWLSG | 0.654 ± 0.023
AWGRRGGRMKVG | 0.62 ± 0.022
AWGWGGTGSAGA | 0.71 ± 0.0097
AWGWPWGHGFVV | 0.738 ± 0.047
AWLLWGPVLRGI | 0.694 ± 0.051
AYLPSLPPLGGI | 0.717 ± 0.06
AYRITRSRGTEF | 0.7233 ± 0.0036
CAGPLLIPPLSL | 0.6895 ± 0.0042
CAIGECRGAGVS | 0.679 ± 0.032
CAIGTGTKVKPS | 0.684 ± 0.016
CALCRLGVAWVS | 0.596 ± 0.021
CAPTFSYSLVLS | 0.514 ± 0.036
CARAAFRGYYAQ | 0.744 ± 0.074
CASPLHPCPKST | 0.6542 ± 0.0023
CCGDAVVGPRVV | 0.711 ± 0.041
CCGSSPLPPFTS | 0.724 ± 0.055
CCISCSVCKDGS | 0.6183 ± 0.00094

Sequence | protein stability index
CCLSGGFFLFGL | 0.622 ± 0.062
CCPVTLLLPFPL | 0.606 ± 0.01
CCRRWSLEWGRG | 0.717 ± 0.038
CCVGVGTRLGFA | 0.646 ± 0.082
CCVKRARVPHFV | 0.6159 ± 0.0014
CDEVEGVLLVRG | 0.707 ± 0.047
CDFVFEFSCVQV | 0.577 ± 0.025
CDRAYSPLSRHN | 0.6848 ± 0.0063
CDVLNQTRKRHK | 0.7028 ± 0.0019
CEVGSKGCACRV | 0.649 ± 0.025
CFFGSILYLCFG | 0.5331 ± 0.0045
CFLLCLSSSPVL | 0.64 ± 0.029
CFPYFCGFLGPL | 0.697 ± 0.031
CFVIFFSSPGVC | 0.583 ± 0.03
CGAAFRSWTVRG | 0.653 ± 0.067
CGAVDTETWWGG | 0.642 ± 0.024
CGGAVMREGQVG | 0.681 ± 0.013
CGGGGASGAIAR | 0.668 ± 0.013
CGGGRSTAWERS | 0.63 ± 0.015
CGGVLAQREVSG | 0.637 ± 0.021
CGIAGVKSLGLC | 0.717 ± 0.039
CGSCFIKRFGGG | 0.631 ± 0.034
CGSTRGDCVGIW | 0.705 ± 0.05
CGTYFRLTRCAV | 0.577 ± 0.043
CGVLPTPDRHHS | 0.631 ± 0.084

Sequence | protein stability index
CGWAWGWRESKM | 0.723 ± 0.1
CHPFQAAVPIYL | 0.581 ± 0.12
CHRSSPPPPPPT | 0.711 ± 0.046
CIFTVINNTPYC | 0.801 ± 0.12
CISCVVDSPLSV | 0.712 ± 0.045
CISGRGIYAKAF | 0.699 ± 0.043
CLGSVFYCCWNF | 0.648 ± 0.025
CLHFSFFTFENF | 0.67 ± 0.02
CLPFSCFLLTPR | 0.692 ± 0.014
CLPTGMSKFPDF | 0.683 ± 0.029
CLRFPALPRRHP | 0.772 ± 0.017
CLSHSIYYSFSF | 0.691 ± 0.086
CLVLDILSETWL | 0.71 ± 0.036
CLWCCFTDCCDT | 0.762 ± 0.011
CLWLALMSIFLP | 0.539 ± 0.03
CLWTSAQVPFQT | 0.703 ± 0.0081
CMASCTRSYYRL | 0.661 ± 0.005
CPAPCPPLPPHV | 0.71997 ± 0.00064
CPCPSHLLLRSP | 0.659 ± 0.0084
CPDGSGWLARGC | 0.661 ± 0.11
CPFPPPPCPPPL | 0.665 ± 0.02
CPGGRKPRQTAG | 0.679 ± 0.14
CPGPPSLSPRPS | 0.672 ± 0.029
CPLPIKANLSFP | 0.705 ± 0.037
CPLPPPRPLLSA | 0.651 ± 0.026

Sequence | protein stability index
CPPPPPPPPSRC | 0.704 ± 0.036
CPPRIVRPRGVK | 0.6775 ± 0.0019
CPRAPKTPISGI | 0.635 ± 0.049
CPRPPPPTACPV | 0.641 ± 0.1
CPSAPHNTLSTG | 0.68 ± 0.052
CQERKLKNQPMV | 0.607 ± 0.054
CQILLSYSGYPH | 0.589 ± 0.021
CQWLIVEWEEKG | 0.662 ± 0.083
CRAGSVGGIRGR | 0.693 ± 0.015
CRPTGSSTRFQL | 0.718 ± 0.01
CRWGGGGRRGRG | 0.723 ± 0.025
CSAHVPAPHSYR | 0.704 ± 0.061
CSDGAFELRRDG | 0.544 ± 0.078
CSDISASTVSRL | 0.715 ± 0.039
CSKLYGAFANTF | 0.644 ± 0.1
CSKRTGRKSVTY | 0.7299 ± 0.0063
CSLSGAFLNQAR | 0.6842 ± 0.0041
CSPCSFCDLVSH | 0.691 ± 0.03
CSSGGFSLFDEA | 0.7504 ± 0.0024
CSWLVEWVLSFS | 0.5417 ± 0.0041
CTAWGGWWTGRR | 0.743 ± 0.16
CTCGDFHRAWVS | 0.667 ± 0.01
CTCTVSMLPRTC | 0.639 ± 0.017
CTFSGSHGSFPS | 0.717 ± 0.028
CTHYFSNSCLLR | 0.604 ± 0.063

Sequence | protein stability index
CTICQLASKAIC | 0.599 ± 0.04
CTRGVVSPKLFV | 0.786 ± 0.17
CTRLSQTSMGRG | 0.696 ± 0.043
CTSCDVFVFCPF | 0.708 ± 0.036
CVAFLPISSFTS | 0.76 ± 0.07
CVAGSARVCDVR | 0.627 ± 0.083
CVDWGAVGLVAG | 0.598 ± 0.018
CVGFVVVGGVLG | 0.667 ± 0.05
CVGGFLEGIRLG | 0.711 ± 0.041
CVGVEDFFFACF | 0.703 ± 0.029
CVVRSGIGFSLL | 0.741 ± 0.026
CWAGKITAKIDV | 0.666 ± 0.0085
CWRDTSSPSVLD | 0.682 ± 0.041
CYCTYHDQDSVS | 0.757 ± 0.032
CYLKGSGSWISG | 0.718 ± 0.031
CYPPTRYILGYF | 0.72 ± 0.06
DARALMGEGGSV | 0.651 ± 0.016
DARKTKNRKDTA | 0.699 ± 0.024
DARRAKPTRRNA | 0.688 ± 0.059
DAWSFHNGATGA | 0.676 ± 0.029
DCCAHLRARRLT | 0.539 ± 0.035
DCFSLVLRFTPV | 0.64 ± 0.034
DCRATNTTWGLS | 0.697 ± 0.18
DCVFLPCPRFFL | 0.707 ± 0.03
DDSHVLILKFNW | 0.691 ± 0.045

Sequence | protein stability index
DERESLFPLCSG | 0.725 ± 0.015
DETIAALYTMTD | 0.615 ± 0.014
DEVGVGASSNVF | 0.619 ± 0.037
DFCSVDLNLCIV | 0.61 ± 0.011
DFGVRLGGPRTL | 0.645 ± 0.017
DGAVRRGVGGLG | 0.699 ± 0.031
DGCVTVDIRRGV | 0.733 ± 0.016
DGGTSGGGVPVP | 0.637 ± 0.054
DGKLNTASIEKV | 0.684 ± 0.036
DGQSAKEPVGFR | 0.681 ± 0.037
DGRGPVSPTSLR | 0.662 ± 0.036
DGVAILPLVRIS | 0.63 ± 0.031
DGWKERDSGVVG | 0.701 ± 0.018
DHLTGTPPSPTV | 0.72 ± 0.048
DIEFGLSTVVCH | 0.5099 ± 0.0046
DIYGYENNIIKN | 0.708 ± 0.013
DKIYNRNSKRRI | 0.6418 ± 0.0055
DKMLDIETNNKH | 0.654 ± 0.033
DKRPTLYSLSLS | 0.621 ± 0.032
DKSGVYYMYSFK | 0.733 ± 0.059
DLGSFVNSGWVT | 0.706 ± 0.044
DLMLSVDLNIDG | 0.699 ± 0.0084
DLRGDYCAGARV | 0.685 ± 0.028
DLRSQGWVALFH | 0.663 ± 0.04
DLSCVPSVNLGM | 0.682 ± 0.075

Sequence | protein stability index
DLYLETSCSIGG | 0.6723 ± 0.0032
DLYPSVWVSIGP | 0.721 ± 0.019
DLYQRPPLPKFS | 0.688 ± 0.036
DMSVVCDRVLFD | 0.733 ± 0.034
DNKDRFRMFRVG | 0.695 ± 0.095
DNVVLVRQAAFI | 0.618 ± 0.066
DPCDVVQHPSAQ | 0.657 ± 0.11
DPPLPLSPLTHR | 0.679 ± 0.05
DPSQRRPDCCTY | 0.729 ± 0.039
DPVGRSSHQFFL | 0.633 ± 0.026
DPWPPPRTRTRT | 0.682 ± 0.015
DQEENKRTNGTR | 0.7096 ± 0.0034
DQIDGPCNSRTR | 0.674 ± 0.023
DQIWHPATRIMC | 0.638 ± 0.071
DQSLHAWSLRCT | 0.771 ± 0.011
DRDRVLLRGYRH | 0.57134 ± 0.00013
DRGSSRFTIGPK | 0.676 ± 0.022
DRHWLELVGLWS | 0.75 ± 0.049
DRLGQYSLIQRG | 0.687 ± 0.022
DRLSSPYTLFCY | 0.571 ± 0.037
DRRKRMLLLEHP | 0.76 ± 0.054
DRSQKINKKKKK | 0.75 ± 0.017
DRSRATRSPHIN | 0.703 ± 0.023
DRTQKIQNNKWM | 0.622 ± 0.014
DSDIIDYKMEII | 0.722 ± 0.12

Sequence | protein stability index
DSGLVSRNLFLH | 0.645 ± 0.18
DSGYRQWGGTGR | 0.714 ± 0.12
DSILCVPCVYLY | 0.629 ± 0.0084
DSRTLDQNRAKF | 0.824 ± 0.032
DSSCLVWYRCGC | 0.719 ± 0.083
DSTGFRQNGQTD | 0.73 ± 0.015
DSTLCSCSLHTS | 0.777 ± 0.12
DSTVGRTLRTRR | 0.617 ± 0.068
DSVGVLVPRGFR | 0.766 ± 0.045
DTDRRWLGTFLV | 0.534 ± 0.023
DTLPSYPVHCRP | 0.71 ± 0.014
DTRRHSFCSGTG | 0.697 ± 0.029
DTSNRRFAYRRS | 0.533 ± 0.12
DTTTQPMSYEDP | 0.669 ± 0.22
DTYSEQRIVVTK | 0.677 ± 0.012
DVHNCSLQAAKK | 0.691 ± 0.012
DVLCALYFGRSK | 0.707 ± 0.045
DVLGLSSRPFRV | 0.665 ± 0.015
DVLSSVRGLTLL | 0.678 ± 0.0082
DVVWRVVNDSDL | 0.712 ± 0.051
DYLGGGARSEVD | 0.745 ± 0.029
